{
  "source": "patent US12359199B2",
  "about": "“Regulation of gene expression via aptamer-mediated control of self-cleaving ribozymes” (MEIRAGTX UK II LIMITED, priority 2016, dated 2025)",
  "type_in_all_cases": "cell-based",
  "key": {"[1]": {"system": "mouse erythropoietin (Epo) gene expression in HEK 293 cells", "assay": "ELISA assay for measuring mouse Epo in culture media of transfected HEK 293 cells", "details": "riboswitch in 3′ UTR of mouse Epo gene; ligand-treated vs solvent-treated control cells; supernatant 18 hours after treatment", "protocol": "FIG. 3e. HEK 293 cells were transfected with the indicated constructs, and treated with 500 μM guanosine. DMSO was used as solvent control. Supernatant was collected 18 hours after guanosine treatment, the Epo was measured using ELISA kit. The results were expressed as mean±SD (n=2). Shown is the representative of two independent experiments.\nELISA assay for measuring mouse Epo in culture media: Supernatant was collected 18 hours after drug treatment, and an ELISA was performed using ELISA kit (R&D) according to manufacturer's instructions. The data was analyzed using 4-parameter curve fitting."}, "[2]": {"system": "firefly luciferase expression in HEK 293 cells", "assay": "Firefly luciferase assay of transfected HEK 293 cells treated with or without guanine or guanosine", "details": "for reduction of luciferase gene expression in the presence of guanine: riboswitch and linker2A downstream of start codon, guanine vs untreated control", "protocol": "Firefly luciferase assay of cultured cells: 24 hours after media change, plates were removed from the incubator, equilibrated to RT for several minutes on a lab bench, and then aspirated. Glo-lysis buffer (Promega, 100 μL, RT) was added, and the plates allowed to remain at RT for at least 5 minutes. The well contents were mixed by 50 μL trituration, and 20 μL of each sample was mixed with 20 μL of bright-glo reagent (Promega) that had been diluted to 10% in glo-lysis buffer. 96 wells were spaced on an opaque white 384-well plate. Following a 5-minute incubation at RT, luminescence was measured using a Tecan machine with 500 mSec read time. The luciferase activity was expressed as mean relative light unit (RLU)±S.D. […]\nTransfection and aptamer ligand treatment: HEK 293 cells were transfected as described in Example 1. Four hours after transfection, the media was aspirated, and new media with or without 500 μM guanine or 1 mM guanosine (Sigma) was added. Luciferase assay was performed 20 to 24 hours after guanine or guanosine treatment as described in Example 2. The reduction fold was expressed as the quotient of luciferase activity obtained in the absence of aptamer ligand divided by the value obtained in the presence of the aptamer ligand.\nOligos containing either a start codon or coding sequence for the first 10 amino acids of GFP and waspGua16 followed by a linker2A sequence were synthesized (IDT) and cloned into the pLuc vector using the Gibson cloning strategy and cloning kit (NEB). Transfection and luciferase assay of cultured cells were performed as described in Example 3. […]"}, "[3]": {"system": "firefly luciferase expression in HEK 293 cells", "assay": "Firefly luciferase assay of HEK 293 cells transfected with twister ribozyme constructs (no ligand)", "details": "twister in 3′ UTR of firefly luciferase, compared to pFLuc control construct", "excerpt": "Plasmid constructs: The following primers were used to generate constructs GFP_wasp_No Sac 0HP or GFP_wasp_No Sac 3HP: forward primers NoSac_Fwd (5′ […]) and NoSac3HP_Fwd (5′ […]) and reverse primer MfeI Rev (5′ […]). GFP_wasp-twister vector was used as template and the PCR-amplified DNA fragments were digested with BsrGI and MfeI and cloned into pEGFP-C1 digested with BsrGI and MfeI enzymes. The EGFP gene in pEGFP-C1 was replaced with the firefly luciferase gene to generate the pFLuc vector using Gibson cloning strategy and cloning kit (NEB). The same strategy was used to generate constructs Luc_wasp_No Sac 0HP and Luc_wasp_No Sac 3 HP by replacing the EGFP gene in constructs GFP_wasp_no Sac 0HP and GFP_wasp_no Sac 3HP with the firefly luciferase gene.\nFirefly luciferase assay of cultured cells: 24 hours after media change, plates were removed from the incubator, equilibrated to RT for several minutes on a lab bench, and then aspirated. Glo-lysis buffer (Promega, 100 μL, RT) was added, and the plates allowed to remain at RT for at least 5 minutes. […] Following a 5-minute incubation at RT, luminescence was measured using a Tecan machine with 500 mSec read time. The luciferase activity was expressed as mean relative light unit (RLU)±S.D."}, "[4]": {"system": "firefly luciferase expression in HEK 293 cells", "assay": "Firefly luciferase assay of transfected HEK 293 cells treated with or without theophylline", "protocol": "Firefly luciferase assay of cultured cells: 24 hours after media change, plates were removed from the incubator, equilibrated to RT for several minutes on a lab bench, and then aspirated. Glo-lysis buffer (Promega, 100 μL, RT) was added, and the plates allowed to remain at RT for at least 5 minutes. The well contents were mixed by 50 μL trituration, and 20 μL of each sample was mixed with 20 μL of bright-glo reagent (Promega) that had been diluted to 10% in glo-lysis buffer. 96 wells were spaced on an opaque white 384-well plate. Following a 5-minute incubation at RT, luminescence was measured using a Tecan machine with 500 mSec read time. The luciferase activity was expressed as mean relative light unit (RLU)±S.D.\nOligos containing the twister ribozyme sequence linked with theophylline aptamer were synthesized (IDT), and cloned into pLuc vector using Gibson cloning strategy and kit (NEB). Construct sequences were verified by DNA sequencing (Genewiz).\nTransfection and firefly luciferase assay: HEK 293 cells were transfected as described in Example 1. Four hours after transfection, the media was aspirated, and new media with or without 2 mM theophylline (Sigma) was added. […] The reduction fold was expressed as the quotient of luciferase activity obtained in the absence of aptamer ligand divided by the value obtained in the presence of the aptamer ligand."}, "[5]": {"details": "500 μM guanine vs no guanine, riboswitch in 3′ UTR"}},
  "note": "Where “and” joins values, the source holds several entries; their conditions need not be identical. Equal entries are not always repeated.",
  "data": [
    {"molecule": "Luci-waspGua16: Luciferase construct with 3 bp of stem connecting the guanine aptamer directly to twister loop 2; OFF riboswitch in 3′ UTR (nucleic acid, misc_feature 1..247 waspGua16 in pLuc, Luciferase construct with 3 bp of stem connecting the guanine aptamer directly to twister loop 2; OFF riboswitch in 3′ UTR) DNA: TCAGAGAGATCCTCATAAAGGCCAAGAAGGGCGGAAAGATCGCCGTGTAAACGCCTTGTAATGCGGCATATAATCGCGTGGATATGGCACGCAAGTTTCTACCGGGCACCGTAAATGTCCGACTATTCGGTCTCAAGCCCGATAAACGCAGAGAGCAAGGCGGCCGCCATACCACATTTGTAGAGGTTTTACTTGCTTTAAAAAACCTCCCACACCTCCCCCTGAACCTGAAACATAAAATGAATGC", "values": [
      {"measurement": "reduction of Epo production", "setting": "[1]", "value": "approximately 30%"},
      {"measurement": "fold reduction in luciferase activity upon guanine treatment", "setting": "[2]; [5]", "value": "15 fold and 12 fold"},
      {"measurement": "reduction in luciferase activity upon guanine treatment", "setting": "[2]; [5]", "value": 92, "unit": "%"},
      {"measurement": "reduction in luciferase activity upon guanine treatment (in words)", "setting": "[2]; 500 μM guanine, riboswitch in 3′ UTR", "value": "reduced luciferase activity"},
      {"measurement": "fold reduction in luciferase expression upon guanosine treatment", "setting": "[2]; guanosine at 1 mM as aptamer ligand, riboswitch in 3′ UTR", "value": 25, "unit": "fold"}
    ]},
    {"molecule": "10aa_waspGua16: waspGua16 and linker2A inserted downstream of the coding sequence for the first 10 amino acids of GFP, in pLuc (nucleic acid, misc_feature 1..255 10aa_wtWaspGua16 in pLuc) DNA: ATGGTGAGCAAGGGCGAGGAGCTGTTCACCACGCCTTGTAATGCGGCATATAATCGCGTGGATATGGCACGCAAGTTTCTACCGGGCACCGTAAATGTCCGACTATTCGGTCTCAAGCCCGATAAACGCAGAGAGCAAGGCGAAGGCGGATCTTCAGGTAGTGGCGAGGGCAGAGGAAGTCTTCTAACATGCGGTGACGTGGAGGAGAATCCCGGCCCCGAAGACGCCAAAAACATAAAGAAAGGCCCGGCGCCA", "values": [
      {"measurement": "reduction of luciferase gene expression in the presence of guanine", "setting": "[2]", "value": 68, "unit": "%"}
    ]},
    {"molecule": "Luc_wasp_No Sac 0HP: Firefly luciferase construct with wasp twister without SacII sequence in 3′ UTR (nucleic acid, misc_feature 1..203 wasp_No Sac 0HP in pLuc) DNA: TCAGAGAGATCCTCATAAAGGCCAAGAAGGGCGGAAAGATCGCCGTGTAAACTTGTAATGCGGCCGTGTAAATAATTTACACGTCGGTCTCAAGCCCGATAAACGCAGAGAGCAAGGCGGCCGCCATACCACATTTGTAGAGGTTTTACTTGCTTTAAAAAACCTCCCACACCTCCCCCTGAACCTGAAACATAAAATGAATG", "values": [
      {"measurement": "fold reduction of luciferase activity", "setting": "[3]", "value": 101, "unit": "fold"}
    ]},
    {"molecule": "twister_theo_3: Theophylline aptamer linked by 3 bp stem to loop 2 of twister ribozyme, in pLuc (nucleic acid, misc_feature 1..219 twister_theo_3 in pLuc, Theophylline aptamer linked by 3 bp stem to loop 2 of twister ribozyme, in pLuc) DNA: TCAGAGAGATCCTCATAAAGGCCAAGAAGGGCGGAAAGATCGCCGTGTAAACGCCTTGTAATGCGGCGCGATACCAGCCGAAAGGCCCTTGGCAGCGTTCGGTCTCAAGCCCGATAAACGCAGAGAGCAAGGCGGCCGCCATACCACATTTGTAGAGGTTTTACTTGCTTTAAAAAACCTCCCACACCTCCCCCTGAACCTGAAACATAAAATGAATGC", "values": [
      {"measurement": "reduction in gene expression (luciferase activity) upon theophylline treatment", "setting": "[4]; 2 mM theophylline vs no theophylline", "value": 62, "unit": "%"},
      {"measurement": "luciferase activity in the absence of aptamer ligand (in words)", "setting": "[4]; no theophylline", "value": "the most robust luciferase activity"}
    ]},
    {"molecule": "ATG_waspGua16: waspGua16 and linker2A inserted downstream of ATG and upstream of remaining luciferase coding sequence (nucleic acid, misc_feature 1..228 ATG_wtWaspGua16 in pLuc) DNA: ATGACGCCTTGTAATGCGGCATATAATCGCGTGGATATGGCACGCAAGTTTCTACCGGGCACCGTAAATGTCCGACTATTCGGTCTCAAGCCCGATAAACGCAGAGAGCAAGGCGAAGGCGGATCTTCAGGTAGTGGCGAGGGCAGAGGAAGTCTTCTAACATGCGGTGACGTGGAGGAGAATCCCGGCCCCGAAGACGCCAAAAACATAAAGAAAGGCCCGGCGCCA", "values": [
      {"measurement": "reduction of luciferase gene expression in the presence of guanine", "setting": "[2]", "value": 68, "unit": "%"}
    ]},
    {"molecule": "Luc_wasp_No Sac 3HP: Firefly luciferase construct with wasp twister with 3 bp stem (3HP) at P1 stem in 3′ UTR (nucleic acid, misc_feature 1..207 wasp_No Sac 3HP in pLuc, Firefly luciferase construct with wasp twister with 3 bp stem (3HP) at P1 stem in 3′ UTR) DNA: TCAGAGAGATCCTCATAAAGGCCAAGAAGGGCGGAAAGATCGCCGTGTAAACGCCTTGTAATGCGGCCGTGTAAATAATTTACACGTCGGTCTCAAGCCCGATAAACGCAGAGAGCAAGGCGGCCGCCATACCACATTTGTAGAGGTTTTACTTGCTTTAAAAAACCTCCCACACCTCCCCCTGAACCTGAAACATAAAATGAATGC", "values": [
      {"measurement": "fold reduction of luciferase activity", "setting": "[3]", "value": 254, "unit": "fold"}
    ]}
  ]
}
